Assay results from patent publication US20210403913.

Legend:
[1] = biological target: D-CXCL8 (mirror-image human CXCL8) (synthetic (human sequence)) (UniProt P10145); experiment: competition; settings: competition pull-down vs labelled 315-F8-001; 37 C
[2] = biological target: CXCL8 (IL-8) (Homo sapiens) (UniProt P10145); experiment: SPR; settings: L-RNA, CXCL8 immobilised
[3] = biological target: D-CXCL8 (mirror-image human CXCL8) (synthetic (human sequence)) (UniProt P10145); experiment: pulldown; settings: direct pull-down, 37 C

“CUGACGGAAGUACGUGGAAAGCCGAAAGUGUGUCCCGGUCAG [315-F8-002 (D)]” showed a Kd [1] of 1.1 nM.

“CUGACGGAAGUACGUGGAAAGCCGAAAGUGUGUCCCGGUCAG [315-F8-002 (L)]” gave a Kd ([2]; 25 C) of 0.22 nM and a Kd ([2]; 37 C) of 0.75 nM.

“CUGACGGAAGUACGUGGAAAGCCGAAAGUGUGUCCCGGUCAG [315-F8-002-PEG (AON-S08)]” showed a Kd ([2]; 5'-aminohexyl linker with 40 kDa Y-shape PEG, 25 C) of 0.2 nM and a Kd ([2]; 5'-aminohexyl linker with 40 kDa Y-shape PEG, 37 C) of 0.8 nM.

With “GCUGACGGAAGUACGUGGAAAGCCAAUGAGUGUGUCCCGGUCAGC [315-H9-001 (D)]” the Kd [3] was 1.7 nM.

“GCUGACGGAAGUACGUGGAAAGCCGAAAGUGUGUCCCGGUCAGC [315-F8-001 (D)]” gave a Kd ([3]; 20 mM Tris pH 7.4, 150 mM NaCl, 5 mM KCl, 1 mM MgCl2, 1 mM CaCl2, yeast RNA) of 0.8 nM.

“GCUGACGGAAGUACGUGGAAAGCCGAAAGUGUGUCCCGGUCAGC [315-F8-001 (L)]” was tested, and the Kd ([2]; 25 C, 20 mM Tris pH 7.4, 150 mM NaCl, 5 mM KCl, 1 mM MgCl2, 1 mM CaCl2) was 0.22 nM and the Kd ([2]; 37 C) was 0.68 nM.
